{"source": "patent US20060246095A1", "about": "“Multiepitope polypeptides for cancer immunotherapy” (HADASIT MEDICAL RESEARCH SERVICES & DEVELOPMENT LTD., priority 2003, published 2006)", "molecules": {"B1": {"name": "MEP-mel: melanoma multiepitope polypeptide, SEQ ID NO: 2 or 57; in Tables 2-9 delivered by transfecting DC with pcDNA3-MEP-Mel plasmid (protein)", "chain": "PGTMGSCRKSYYLEPGPVTVRKSYLIMDQVPFSVRKSYLYMDGTMSQVRKSYLAGIGILTVRKSYYLEPGPVTVALLIMDQVPFSVALLYMDGTMSQVALLLAGIGILTVSSLYLEPGPVTVAAYIMDQVPFSVSSLYMDGTMSQVAAYLAGIGILTV"}}, "assay_type_in_all_cases": "cell-based, human", "key": {"[1]": {"tested_on": "T cell clone CK3H6 (A2 restricted gp100 epitope 209-217)", "assay": "Recognition assay for peptide presentation by DC (IFN-γ release ELISA), T cell clone CK3H6", "details": "CK3H6", "experimental": "(§1) Dendritic cells were isolated from cytopheresis MNCs of melanoma patients with the HLA haplotypes HIA-A*0201 and HLA-DRβ1*0401. DC were generated from plastic adherent PBMCs cultured in RPMI with 10% human AB-serum, L-glutamine, penicillin-streptomycin, supplemented with GM-CSF 1000 IU/ml and IL-4 1000 IU/ml. By day 6, immature DC were harvested for electroporation.\n(§2) 2.5-3×10^6 DC were re-suspended in 100 μl nucleofector solution and added to 5 μg of DNA plasmid in 2-mm electrode gap cuvettes. Transfected DC were immediately plated with CM containing GM/IL4 or let mature using TNFα 100 ng/ml and PGE2 1000 ng/ml. GFP-transfected DCs were collected 16-24 hours later for FACS analysis.\n(§3) DC were pulsed with 1 μg/ml of the relevant peptides at 1×10^6 cells/ml. Stimulants were added after 1 hour incubation without washing the peptide.\nCK3H6 which recognizes the A2 restricted gp100 epitope 209-217.\n(§4) T cell clones were co-incubated with DC in flat 96-well plate for 24 hours. DC were plated immediately after their transfection or pulsing in 6 separated plates, in the presence of GM CSF and IL-4. 1×10^5 T cells were added to 1×10^5 pulsed or transfected DC. In the longitudinal study, T cell clones were added to the transfected/pulsed DC at the following time points: T0=immediately, +12=after 12 hours, 24, 36, 48 and 72 hours. Supernatants were collected after overnight incubation. Interferon gamma release assay was performed to evaluate T cell stimulation using the ELISA method, results are presented in pg/ml.\n(§5) Lactacystin was added to DC at concentrations of 25 μM and 50 μM, 4 hours post transfection. DC were incubated with lactacystin for 70 minutes and then washed twice.\n(§6) Responding T cells were added after washing the lactacystin and co-incubated. Supernatents were collected after 20 hours.\n(§7) For recognition assay of DC epitope presentation, 1×10^5 cells from different T cell clones, that were grown from PBMCs of patients, and were restricted to particular melanoma antigen peptides, were co-incubated with 1×10^5 pulsed or transfected DC, in the presence of GM-CSF and IL-4. T cell clones were added to the transfected/pulsed DC at the following time points: T=0 immediately, T=12, 24, 36, 48, 72 hours. Supernatant was collected after overnight incubation and was subjected to interferon gamma release assay, in order to evaluate the specific T cell activity towards the particular peptide presented by the DC cells.\n(§8) The results shown in the following tables represent the amount of Interferon-γ (pg/ml) secreted to the culture medium as an index for T cell stimulation."}, "[2]": {"tested_on": "TIL 1383 (A2 restricted tyrosinase epitope 369-377)", "assay": "Recognition assay for peptide presentation by DC (IFN-γ release ELISA), TIL 1383", "experimental": "as §1, §2, §3\nTIL 1383 which recognizes the A2 restricted tyrosinase epitope 369-377.\nas §4, §5, §6, §7, §8"}, "[3]": {"tested_on": "T cell clone BR-B8 (DR4-restricted gp100 epitope 44-59)", "assay": "Recognition assay for peptide presentation by DC (IFN-γ release ELISA), clone BR-B8", "details": "transfected DC, BR-B8", "experimental": "as §1, §2\npcDNA-MEP and pcDNA-gp100 were co-transfected to detect Class II antigen presentation as an internal control.\nBR-B8 which recognizes the DR4-restricted gp100 epitope 44-59.\nas §4, §5, §6\nFor recognition assay of DC epitope presentation, 1×10^5 cells from different T cell clones, that were grown from PBMCs of patients, and were restricted to particular melanoma antigen peptides, were co-incubated with 1×10^5 pulsed or transfected DC, in the presence of GM-CSF and IL-4. […]"}, "[4]": {"tested_on": "T cell clone HT 2D9 (A2 restricted gp100 epitope 280-288)", "assay": "Recognition assay with proteasome inhibition (IFN-γ release ELISA), clone HT 2D9", "details": "transfected DC", "experimental": "as §1, §2\nHT 2D9 which reacts with A2 restricted gp100 epitope 280-288.\nas §4, §5, §6\nControl DC were transfected and incubated with responder T cell clones within the same time frame, without lactacystin. […]"}, "[5]": {"tested_on": "DC with CM (no T cell clone)", "assay": "Recognition assay, CM in place of a T cell clone (IFN-γ background of DC)", "details": "CM instead of T cell clone", "experimental": "as §1, §2, §3, §4, §7, §8"}, "[6]": {"tested_on": "T cell clones specific for different gp100 and MART-1 antigens", "assay": "Uptake of MEP protein by DC and presentation to T cell clones (IFN-γ secretion, FIG. 2)", "details": "DC incubated with protein 4 hours", "experimental": "DC incubated with MEP-Mel protein were able to specifically stimulate T cell clones reactive to different MEP epitopes of gp100 and MART-1. T cell stimulation was estimated by the amount of IFN-γ secreted to the culture medium (pg/ml).\nT cell clones tested: GP 100-209a and 209b specific for gp100 209-217 epitope, GP 100-280 specific for gp100 280-288 epitope, GP 100-154 specific for a gp100 epitope not present in MEP (used as control) and MART-1 specific for the epitope 27-35.\nImmature DC were incubated with MEP protein for 4 hours. After DC maturation, dendritic cells were incubated in the presence of T cell clones specific for different gp100 and MART-1 antigens. T cell stimulation was estimated by measuring the interferon gamma (IFN-γ) secretion to the medium. […] A MART-1 specific T cell clone was also found to be stimulated."}, "[7]": {"details": "transfected DC, Lactacystin 25 μM"}, "[8]": {"details": "transfected DC, Lactacystin 50 μM"}, "[9]": {"details": "transfected or peptide-pulsed DC, Donor 1, T = 12 hours"}, "[10]": {"details": "transfected or peptide-pulsed DC, Donor 1, T = 48 hours"}, "[11]": {"details": "transfected or peptide-pulsed DC, Donor 1, T = 72 hours"}, "[12]": {"details": "transfected or peptide-pulsed DC, Donor 2, T = 12 hours"}, "[13]": {"details": "transfected or peptide-pulsed DC, Donor 2, T = 24 hours"}, "[14]": {"details": "transfected or peptide-pulsed DC, Donor 2, T = 36 hours"}, "[15]": {"details": "transfected or peptide-pulsed DC, Donor 2, T = 48 hours"}, "[16]": {"details": "transfected or peptide-pulsed DC, Donor 2, T = 72 hours"}}, "data": [{"molecule": "B1", "values": [{"measurement": "Interferon-γ secreted to the culture medium", "setting": "[1]; transfected DC from donor 1, T = 0 hours", "value": ">2000", "unit": "pg/mL"}, {"measurement": "Interferon-γ secreted to the culture medium", "setting": "[1]; transfected DC from donor 2, T = 0 hours", "value": ">2000", "unit": "pg/mL"}, {"measurement": "Interferon-γ secreted to the culture medium", "setting": "[1]; transfected DC, Lactacystin 0", "value": 705, "unit": "pg/mL"}, {"measurement": "Interferon-γ secreted to the culture medium", "setting": "[1]; [7]", "value": 73, "unit": "pg/mL"}, {"measurement": "Interferon-γ secreted to the culture medium", "setting": "[1]; [8]", "value": 36, "unit": "pg/mL"}, {"measurement": "Interferon-γ secreted to the culture medium", "setting": "[1]; [9]", "value": ">2000", "unit": "pg/mL"}, {"measurement": "Interferon-γ secreted to the culture medium", "setting": "[1]; transfected or peptide-pulsed DC, Donor 1, T = 24 hours", "value": ">2000", "unit": "pg/mL"}, {"measurement": "Interferon-γ secreted to the culture medium", "setting": "[1]; transfected or peptide-pulsed DC, Donor 1, T = 36 hours", "value": ">2000", "unit": "pg/mL"}, {"measurement": "Interferon-γ secreted to the culture medium", "setting": "[1]; [10]", "value": ">2000", "unit": "pg/mL"}, {"measurement": "Interferon-γ secreted to the culture medium", "setting": "[1]; [11]", "value": 1808, "unit": "pg/mL"}, {"measurement": "Interferon-γ secreted to the culture medium", "setting": "[1]; [12]", "value": ">2000", "unit": "pg/mL"}, {"measurement": "Interferon-γ secreted to the culture medium", "setting": "[1]; [13]", "value": ">2000", "unit": "pg/mL"}, {"measurement": "Interferon-γ secreted to the culture medium", "setting": "[1]; [14]", "value": ">2000", "unit": "pg/mL"}, {"measurement": "Interferon-γ secreted to the culture medium", "setting": "[1]; [15]", "value": ">2000", "unit": "pg/mL"}, {"measurement": "Interferon-γ secreted to the culture medium", "setting": "[1]; [16]", "value": 1328, "unit": "pg/mL"}, {"measurement": "Interferon-γ secreted to the culture medium", "setting": "[2]; transfected DC from donor 1, T = 0 hours, TIL 1383", "value": 111, "unit": "pg/mL"}, {"measurement": "Interferon-γ secreted to the culture medium", "setting": "[2]; transfected DC from donor 2, T = 0 hours, TIL 1383", "value": 387, "unit": "pg/mL"}, {"measurement": "Interferon-γ secreted to the culture medium", "setting": "[2]; transfected DC, Lactacystin 0, TIL1383", "value": 229, "unit": "pg/mL"}, {"measurement": "Interferon-γ secreted to the culture medium", "setting": "[2]; transfected DC, Lactacystin 25 μM, TIL1383", "value": 25, "unit": "pg/mL"}, {"measurement": "Interferon-γ secreted to the culture medium", "setting": "[2]; transfected DC, Lactacystin 50 μM, TIL1383", "value": 0, "unit": "pg/mL"}, {"measurement": "Interferon-γ secreted to the culture medium", "setting": "[3]; Lactacystin 0", "value": 188, "unit": "pg/mL"}, {"measurement": "Interferon-γ secreted to the culture medium", "setting": "[3]; Lactacystin 25 μM", "value": 85, "unit": "pg/mL"}, {"measurement": "Interferon-γ secreted to the culture medium", "setting": "[3]; Lactacystin 50 μM", "value": 16, "unit": "pg/mL"}, {"measurement": "Interferon-γ secreted to the culture medium", "setting": "[4]; Lactacystin 0", "value": 1642, "unit": "pg/mL"}, {"measurement": "Interferon-γ secreted to the culture medium", "setting": "[4]; Lactacystin 25 μM", "value": 244, "unit": "pg/mL"}, {"measurement": "Interferon-γ secreted to the culture medium", "setting": "[4]; Lactacystin 50 μM", "value": 56, "unit": "pg/mL"}, {"measurement": "Interferon-γ secreted to the culture medium", "setting": "[5]; transfected DC, Donor 1, T = 24 hours", "value": 94, "unit": "pg/mL"}, {"measurement": "Interferon-γ secreted to the culture medium", "setting": "[5]; transfected DC, Donor 1, T = 36 hours", "value": 102, "unit": "pg/mL"}, {"measurement": "Interferon-γ secreted to the culture medium", "setting": "[5]; transfected DC, Lactacystin 0", "value": 5, "unit": "pg/mL"}, {"measurement": "Interferon-γ secreted to the culture medium", "setting": "[5]; [7]", "value": 0, "unit": "pg/mL"}, {"measurement": "Interferon-γ secreted to the culture medium", "setting": "[5]; [8]", "value": 51, "unit": "pg/mL"}, {"measurement": "Interferon-γ secreted to the culture medium", "setting": "[5]; [9]", "value": 120, "unit": "pg/mL"}, {"measurement": "Interferon-γ secreted to the culture medium", "setting": "[5]; [10]", "value": 33, "unit": "pg/mL"}, {"measurement": "Interferon-γ secreted to the culture medium", "setting": "[5]; [11]", "value": 18, "unit": "pg/mL"}, {"measurement": "Interferon-γ secreted to the culture medium", "setting": "[5]; [12]", "value": 248, "unit": "pg/mL"}, {"measurement": "Interferon-γ secreted to the culture medium", "setting": "[5]; [13]", "value": 292, "unit": "pg/mL"}, {"measurement": "Interferon-γ secreted to the culture medium", "setting": "[5]; [14]", "value": 191, "unit": "pg/mL"}, {"measurement": "Interferon-γ secreted to the culture medium", "setting": "[5]; [15]", "value": 260, "unit": "pg/mL"}, {"measurement": "Interferon-γ secreted to the culture medium", "setting": "[5]; [16]", "value": 38, "unit": "pg/mL"}, {"measurement": "T cell stimulation (IFN-γ secretion)", "setting": "[6]; MART-1 specific T cell clone", "value": "stimulated"}, {"measurement": "T cell stimulation (IFN-γ secretion)", "setting": "[6]; clone recognizing gp100 epitope 280-288", "value": "also stimulated"}, {"measurement": "T cell stimulation (IFN-γ secretion)", "setting": "[6]; clones 209a and 209b reactive to gp100 epitope 209-217", "value": "highly stimulated"}]}]}
